The test system of the series is locally-advanced or metastatic pancreatic ductal adenocarcinoma (PDAC). Briefly: Clinical study of MVT-5873 as monotherapy or combined with FOLFIRINOX in pancreatic cancer patients. Type of series: in vivo, human. The note with it: Group C patients; MVT 5873 0.5 mg/kg in combination with mFOLFIRINOX; one, two or six cycles of therapy. The procedure:
A clinical study is performed comparing the therapeutic effect of the use of the MVT-5873 monoclonal antibody (5B1 monoclonal antibody) as a monotherapy or in combination with FOLFIRINOX in the treatment of pancreatic cancer, in patients with locally-advanced or metastatic pancreatic ductal adenocarcinoma (PDAC). Patients having other CA19-9-positive malignancies may also be included in the study.
The patients will be subdivided into the following groups: • Group A: A Q4 week monotherapy schedule employing a single dose of MVT 5873 administered 7 days prior to Cycle 1 Day 1 • Group B: A Q2 week monotherapy schedule employing a single dose of MVT 5873 administered 7 days prior to Cycle 1 Day 1 • Group C: A Q2 week schedule in combination with mFOLFIRINOX mFOLFIRINOX is a dose amount of FOLFIRINOX, in which FOLFIRINOX is administered at a dose of 65 mg/m^2 oxaliplatin, 400 mg/m^2 leucovorin, 150 mg/m^2 irinotecan, and 1200 mg/m^2 5-fluorouracil.
In certain groups, the patients, after completing the combination therapy will be administered the antibody having the ability to bind CA 19-9 as a monotherapy.
The administration schedule for Group C is depicted in FIG. 1.
A number of patients in Group C have been administered MVT 5873 at 0.5 mg/kg in combination with mFOLFIRINOX (65 mg/m^2 oxaliplatin, 400 mg/m^2 leucovorin, 150 mg/m^2 irinotecan, and 1200 mg/m^2 5-fluorouracil). […]

Turning to “MVT 5873: fully human IgG1 monoclonal antibody that targets sialyl Lewis A (sLe^a), an epitope on CA19-9; VH and VL of SEQ ID NO: 2 and 4”, the dose limiting toxicities result was “No dose limiting toxicities”.

The values above are taken from US20240190991A1, “COMBINATION THERAPY WITH AN ANTI-CA19-9 ANTIBODY AND FOLFIRINOX IN THE TREATMENT OF CANCER” (BioNTech SE, priority 2021, published 2024).
